Measurements: IntAct's records for PubMed 10869553

B1: Protein S100-A4 (Mus musculus), P07091 (parent)
chain: MARPLEEALDVIVSTFHKYSGKEGDKFKLNKTELKELLTRELPSFLGKRTDEAAFQKVMSNLDSNRDNEVDFQEYCVFLSCIAMMCNEFFEGCPDKEPRKK
partner: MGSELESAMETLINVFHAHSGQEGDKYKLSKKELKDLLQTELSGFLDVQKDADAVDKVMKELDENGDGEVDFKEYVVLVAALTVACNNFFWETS

Variants of: B1
Conditions: with S100a1, P56565

Variant	effect of a mutation on the interaction
F72A	disrupting interaction
